From article doi:10.1101/2021.05.19.444882

Experiments:
[1] = biological target: ChAdOx1 penton protein (chimpanzee adenovirus Y25 (ChAdV-Y25)); assay: cryo-EM structure
[2] = biological target: ChAdOx1 hexon protein (chimpanzee adenovirus Y25 (ChAdV-Y25)); assay: cryo-EM structure
[3] = biological target: ChAdOx1 fiber-knob protein (chimpanzee adenovirus Y25 (ChAdV-Y25)); assay: crystal structure
[4] = biological target: ChAdOx1 pIX (chimpanzee adenovirus Y25 (ChAdV-Y25)); assay: cryo-EM structure

## ChAdOx1 penton protein (natural protein)
[1]
  stoichiometry N: 5

## ChAdOx1 hexon protein (natural protein)
[2]
  stoichiometry N: 3

## ChAdOx1 fiber-knob protein (domain or fragment)
[3]
  stoichiometry N: 3

## ChAdOx1 pIX (natural protein)
[4]
  stoichiometry N: 4
